Where two headings read alike, the source gives them in different places.
[1] = G3, cols c1,3,5,7,9,11,13=0.03,0.1,0.3,1,3,5,10 mg/kg, c15 overall N=20
[2] = G4, cols c2,4,6,8,10,12,14=0.03,0.1,0.3,1,3,5,10 mg/kg, c16 overall N=20
[3] = G4, cols c2,4,6,8,10,12,14=0.03,0.1,0.3,1,3,5,10 mg/kg, last col overall N=20

Method: The phase 1a dose escalation study in US (ClinicalTrials.gov Identifier: NCT03707093) included accelerated titration (0.03, 0.1 and 0.3 mg/kg) and conventional dose escalation (1, 3, and 10 mg/kg). The phase 1a dose escalation study in China (ClinicalTrials.gov Identifier: NCT03802955) included accelerated titration (0.1 mg/kg) and conventional dose escalation (0.5, 1.5, 3, 5, and 10 mg/kg). […] Patients with advanced or metastatic solid tumors and/or non-Hodgkin lymphoma who were refractory or relapsed and exhausted all available therapies were enrolled and received treatment until disease progression, intolerable toxicity, withdrawal with consent, or for a maximum of 24 months.
Dose expansion studies were conducted for dose levels that were proven tolerable in Phase 1a and with evidence of clinical or biological activity. The dose levels studied in Phase 1 b were 3 mg/kg and 5 mg/kg.

ADG106: fully human agonistic anti-CD137 monoclonal IgG4 antibody; heavy chain SEQ ID NO: 10, light chain SEQ ID NO: 11
TEAE white blood cell count increase (China update, 57 patients): 21% | patients with G3 to 4 TEAEs (China update, 21 patients): 35% | SAEs (all causes) (China update, in 11 patients): 15 | Lab abnormality Leukocyte ↓, patients [1]: 0 | Lab abnormality Neutrophil ↓, patients [1]: 0 | Lab abnormality Platelet ↓, patients [1]: 0 | TEAE Arthralgia, patients [1]: 0 | TEAE Constipation, patients [1]: 0 | TEAE Cough, patients [1]: 0 | TEAE Dehydration, patients [1]: 0 | TEAE Fever, patients [1]: 0 | TEAE Hypothyroidism, patients [1]: 0 | TEAE Myalgia, patients [1]: 0 | TEAE Peripheral edema, patients [1]: 0 | TEAE Weight ↓, patients [1]: 0 | Lab abnormality Hemoglobin ↓, patients [2]: 0 | Lab abnormality Leukocyte ↓, patients [2]: 0 | Lab abnormality Neutrophil ↓, patients [2]: 0 | Lab abnormality Platelet ↓, patients [2]: 0 | TEAE (preferred term not given), patients [3]: 0 | TEAE AST increase, patients [3]: 0 | TEAE Anemia, patients [3]: 0 | TEAE Appetite ↓, patients [3]: 0 | TEAE Arthralgia, patients [3]: 0 | TEAE Constipation, patients [3]: 0 | TEAE Cough, patients [3]: 0 | TEAE Dehydration, patients [3]: 0 | TEAE Diarrhea, patients [3]: 0 | TEAE Dyspnea, patients [3]: 0 | TEAE Fever, patients [3]: 0 | TEAE Hypothyroidism, patients [3]: 0 | TEAE Lymphopenia, patients [3]: 0 | TEAE Myalgia, patients [3]: 0 | TEAE Peripheral edema, patients [3]: 0 | TEAE Respiratory failure, patients [3]: 0 | TEAE Tumor pain, patients [3]: 0 | TEAE Vomiting, patients [3]: 0 | TEAE Weight ↓, patients [3]: 0 | >=G3 adverse events (Overall N=40): 15 n (%) | Any Drug Related TEAEs (Overall N=40): 26 n (%) | Any SAE (Overall N=40): 10 n (%) | Any TEAEs Leading to Study Drug Discontinuation (Overall N=40): 5 n (%) | Any TEAEs leading to Study Drug Dose Reduction or Interruption (Overall N=40): 1 n (%) | Any TEAEs with Outcome of Death (Overall N=40): 2 n (%) | Drug Related SAE (Overall N=40): 4 n (%) | SAE leading to Drug discontinuation (Overall N=40): 3 n (%) | Any DLTs (Overall N=40, first 2 cycles): 3 n (%) | ≥Grade 4 TEAEs (Table 6 population): there was no≥Grade 4 TEAEs | dose below which ≥G3 treatment related AEs were not observed (US and China trials): less than 3 mg/kg | total dose at which ADG106 was well tolerated (US and China trials): below 500 mg | dose at which DLT occurs, by body weight (US and Chinese patients): around 10 mg/kg | total dose at which DLT occurs (US and Chinese patients): ~500 mg | tolerability of flat Q3W IV dose of 300 mg and 400 mg (US trial): safe and well tolerated | G3 ALP increase (US update): 2/35 | G3 GGT increase (US update): 3/35 | G3 or G4 decreases of leukocytes, platelets, and neutrophils (US update): There was no G3 or G4 decreases | G4 drug-related TEAEs (US update): there was no G4 drug-related TEAEs | Grade 3 AE anemia (US update): 2/35 | Grade 3 AE decreased appetite (US update): 2/35 | Grade 3 AE dyspnea (US update): 2/35 | Grade 3 AE fatigue (US update): 5/35 | Grade 3 AE tumor pain (US update): 1/35 | Grade 3 AE vomiting (US update): 1/35 | Grade 3 drug-related TEAE AST increase (US update): 1/35 | Grade 3 drug-related TEAE adrenal insufficiency (US update): 1/35 | Grade 3 drug-related TEAE anemia (US update): 1/35 | Grade 3 drug-related TEAE decreased appetite (US update): 1/35 | Grade 3 drug-related TEAE dyspnea (US update): 1/35 | Grade 3 drug-related TEAE fatigue (US update): 3/35 | Grade 3 drug-related TEAE influenza like symptoms (US update): 1/35 | DLTs observed (US update Nov. 30, 2020, 7 dose escalation cohorts 0.03-10 mg/kg Q3W): 2 | AE anemia, regardless of causality (US update, 35 patients): 11% | AE arthralgia, regardless of causality (US update, 35 patients): 14% | AE decreased appetite, regardless of causality (US update, 35 patients): 20% | AE dehydration, regardless of causality (US update, 35 patients): 14% | AE dizziness, regardless of causality (US update, 35 patients): 11% | AE dyspnea, regardless of causality (US update, 35 patients): 11% | AE fatigue, regardless of causality (US update, 35 patients): 29% | AE nausea, regardless of causality (US update, 35 patients): 23% | AE peripheral edema, regardless of causality (US update, 35 patients): 14% | AE tumor pain, regardless of causality (US update, 35 patients): 11% | AE vomiting, regardless of causality (US update, 35 patients): 14% | ALT increased, all grade (US update, 35 patients): 23% | AST increased, all grades (US update, 35 patients): 43% | albumin decreased, all grade (US update, 35 patients): 57% | hemoglobin decrease, all grades (US update, 35 patients): 89% | lymphocytes decrease, all grades (US update, 35 patients): 57% | patients discontinued due to adverse events (US update, 35 patients): 9% | total bilirubin increased (US update, 35 patients): 6% | SAEs related to the study treatment (US update, in 3 patients): 4 | SAEs (all causes) (US update, in 13 patients): 17 | TEAE anemia, regardless of causality (most common TEAEs (≥10%)): 10% | TEAE arthralgia, regardless of causality (most common TEAEs (≥10%)): 10% | TEAE decreased appetite, regardless of causality (most common TEAEs (≥10%)): 10% | TEAE dyspnea, regardless of causality (most common TEAEs (≥10%)): 10% | TEAE lymphopenia, regardless of causality (most common TEAEs (≥10%)): 15% | TEAE respiratory failure, regardless of causality (most common TEAEs (≥10%)): 10% | drug related death (up to 10 mg/kg): no drug related death
